The values that follow come from article PMC11322666 (2024).

Sequences and labels used below:
B1: UPF3B^WT, Flag tagged [human] / UPF2, endogenous [human (endogenous in HEK293T)] (parent complex)
chain 1: MKEEKEHRPKEKRVTLLTPAGATGSGGGTSGDSSKGEDKQDRNKEKKEALSKVVIRRLPPTLTKEQLQEHLQPMPEHDYFEFFSNDTSLYPHMYARAYINFKNQEDIILFRDRFDGYVFLDNKGQEYPAIVEFAPFQKAAKKKTKKRDTKVGTIDDDPEYRKFLESYATDNEKMTSTPETLLEEIEAKNRELIAKKTTPLLSFLKNKQRMREEKREERRRREIERKRQREEERRKWKEEEKRKRKDIEKLKKIDRIPERDKLKDEPKIKVHRFLLQAVNQKNLLKKPEKGDEKELDKREKAKKLDKENLSDERASGQSCTLPKRSDSELKDEKPKRPEDESGRDYREREREYERDQERILRERERLKRQEEERRRQKERYEKEKTFKRKEEEMKKEKDTLRDKGKKAESTESIGSSEKTEKKEEVVKRDRIRNKDRPAMQLYQPGARSRNRLCPPDDSTKSGDSAAERKQESGISHRKEGGEE
chain 2: MPAERKKPASMEEKDSLPNNKEKDCSERRTVSSKERPKDDIKLTAKKEVSKAPEDKKKRLEDDKRKKEDKERKKKDEEKVKAEEESKKKEEEEKKKHQEEERKKQEEQAKRQQEEEAAAQMKEKEESIQLHQEAWERHHLRKELRSKNQNAPDSRPEENFFSRLDSSLKKNTAFVKKLKTITEQQRDSLSHDFNGLNLSKYIAEAVASIVEAKLKISDVNCAVHLCSLFHQRYADFAPSLLQVWKKHFEARKEEKTPNITKLRTDLRFIAELTIVGIFTDKEGLSLIYEQLKNIINADRESHTHVSVVISFCRHCGDDIAGLVPRKVKSAAEKFNLSFPPSEIISPEKQQPFQNLLKEYFTSLTKHLKRDHRELQNTERQNRRILHSKGELSEDRHKQYEEFAMSYQKLLANSQSLADLLDENMPDLPQDKPTPEEHGPGIDIFTPGKPGEYDLEGGIWEDEDARNFYENLIDLKAFVPAILFKDNEKSCQNKESNKDDTKEAKESKENKEVSSPDDLELELENLEINDDTLELEGGDEAEDLTKKLLDEQEQEDEEASTGSHLKLIVDAFLQQLPNCVNRDLIDKAAMDFCMNMNTKANRKKLVRALFIVPRQRLDLLPFYARLVATLHPCMSDVAEDLCSMLRGDFRFHVRKKDQINIETKNKTVRFIGELTKFKMFTKNDTLHCLKMLLSDFSHHHIEMACTLLETCGRFLFRSPESHLRTSVLLEQMMRKKQAMHLDARYVTMVENAYYYCNPPPAEKTVKKKRPPLQEYVRKLLYKDLSKVTTEKVLRQMRKLPWQDQEVKDYVICCMINIWNVKYNSIHCVANLLAGLVLYQEDVGIHVVDGVLEDIRLGMEVNQPKFNQRRISSAKFLGELYNYRMVESAVIFRTLYSFTSFGVNPDGSPSSLDPPEHLFRIRLVCTILDTCGQYFDRGSSKRKLDCFLVYFQRYVWWKKSLEVWTKDHPFPIDIDYMISDTLELLRPKIKLCNSLEESIRQVQDLEREFLIKLGLVNDKDSKDSMTEGENLEEDEEEEEGGAETEEQSGNESEVNEPEEEEGSDNDDDEGEEEEEENTDYLTDSNKENETDEENTEVMIKGGGLKHVPCVEDEDFIQALDKMMLENLQQRSGESVKVHQLDVAIPLHLKSQLRKGPPLGGGEGEAESADTMPFVMLTRKGNKQQFKILNVPMSSQLAANHWNQQQAEQEERMRMKKLTLDINERQEQEDYQEMLQSLAQRPAPANTNRERRPRYQHPKGAPNADLIFKTGGRRR
B2: UPF3B^WT, Flag tagged [human] / inositol-requiring enzyme-1α (IRE1α), endogenous [human (endogenous in HEK293T and U2OS)] (parent complex)
chain 1: B1 chain 1
chain 2: IFGSTSTVTLPETLLFVSTLDGSLHAVSKRTGSIKWTLKEDPVLQVPTHVEEPAFLPDPNDGSLYTLGSKNNEGLTKLPFTIPELVQASPCRSSDGILYMGKKQDIWYVIDLLTGEKQQTLSSAFADSLCPSTSLLYLGRTEYTITMYDTKTRELRWNATYFDYAASLPEDDVDYKMSHFVSNGDGLVVTVDSESGDVLWIQNYASPVVAFYVWQREGLRKVMHINVAVETLRYLTFMSGEVGRITKWKYPFPKETEAKSKLTPTLYVGKYSTSLYASPSMVHEGVAVVPRGSTLPLLEGPQTDGVTIGDKGECVITPSTDVKFDPGLKSKNKLNYLRNYWLLIGHHETPLSASTKMLERFPNNLPKHRENVIPADSEKKSFEEVINLVDQTSENAPTTVSRDVEEKPAHAPARPEAPVDSMLKDMATIILSTFLLIGWVAFIITYPLSMHQQQQLQHQQFQKELEKIQLLQQQQQQLPFHPPGDTAQDGELLDTSGPYSESSGTSSPSTSPRASNHSLCSGSSASKAGSSPSLEQDDGDEETSVVIVGKISFCPKDVLGHGAEGTIVYRGMFDNRDVAVKRILPECFSFADREVQLLRESDEHPNVIRYFCTEKDRQFQYIAIELCAATLQEYVEQKDFAHLGLEPITLLQQTTSGLAHLHSLNIVHRDLKPHNILISMPNAHGKIKAMISDFGLCKKLAVGRHSFSRRSGVPGTEGWIAPEMLSEDCKENPTYTVDIFSAGCVFYYVISEGSHPFGKSLQRQANILLGACSLDCLHPEKHEDVIARELIEKMIAMDPQKRPSAKHVLKHPFFWSLEKQLQFFQDVSDRIEKESLDGPIVKQLERGGRAVVKMDWRENITVPLQTDLRKFRTYKGGSVRDLLRAMRNKKHHYRELPAEVRETLGSLPDDFVCYFTSRFPHLLAHTYRAMELCSHERLFQPYYFHEPPEPQPPVTPDAL

The first experiment covers variants of B1. Put plainly: co-immunoprecipitation (IP: Flag, blot UPF2), western blot band quantification; transfected for 24 h.
chain 1 MKEEKEHRPKEKRVTLLTPAGATGSGGGTSGDSSKGEDKQDRNKEKKEALSKVVIRRLPPTLTKEQLQEHLQPMPEHDYFEFFSNDTSLYPHMYARAYINFKNQEDIILFRDRFDGYVFLDNKGQEYPAIVEFAPFQKAAKKKTKKRDTKVGTIDDDPEYRKFLESYATDNEKMTSTPETLLEEIEAKNRELIAKKTDPLLSFLKNKQRMREEKREERRRREIERKRQREEERRKWKEEEKRKRKDIEKLKKIDRIPERDKLKDEPKIKVHRFLLQAVNQKNLLKKPEKGDEKELDKREKAKKLDKENLSDERASGQSCTLPKRSDSELKDEKPKRPEDESGRDYREREREYERDQERILRERERLKRQEEERRRQKERYEKEKTFKRKEEEMKKEKDTLRDKGKKAESTESIGSSEKTEKKEEVVKRDRIRNKDRPAMQLYQPGARSRNRLCPPDDSTKSGDSAAERKQESGISHRKEGGEE [chain 1 T198D]: the ratio to parent amounted to 1.07.

Take chain 1 MKEEKEHRPKEKRVTLLTPAGATGSGGGTSGDSSKGEDKQDRNKEKKEALSKVVIRRLPPTLTKEQLQEHLQPMPEHDYFEFFSNDTSLYPHMYARAYINFKNQEDIILFRDRFDGYVFLDNKGQEYPAIVEFAPFQKAAKKKTKKRDTKVGTIDDDPEYRKFLESYATDNEKMTSTPETLLEEIEAKNRELIAKKDTPLLSFLKNKQRMREEKREERRRREIERKRQREEERRKWKEEEKRKRKDIEKLKKIDRIPERDKLKDEPKIKVHRFLLQAVNQKNLLKKPEKGDEKELDKREKAKKLDKENLSDERASGQSCTLPKRSDSELKDEKPKRPEDESGRDYREREREYERDQERILRERERLKRQEEERRRQKERYEKEKTFKRKEEEMKKEKDTLRDKGKKAESTESIGSSEKTEKKEEVVKRDRIRNKDRPAMQLYQPGARSRNRLCPPDDSTKSGDSAAERKQESGISHRKEGGEE [chain 1 T197D]: the ratio to parent stood at 1.11.

In the next experiment the parent is B1. Described as above. This is another data set of the same source.
In the case of chain 1 MKEEKEHRPKEKRVTLLTPAGATGSGGGTSGDSSKGEDKQDRNKEKKEALSKVVIRRLPPTLTKEQLQEHLQPMPEHDYFEFFSNDTSLYPHMYARAYINFKNQEDIILFRDRFDGYVFLDNKGQEYPAIVEFAPFQKAAKKKTKKRDTKVGTIDDDPEFRKFLESYATDNEKMTSTPETLLEEIEAKNRELIAKKTTPLLSFLKNKQRMREEKREERRRREIERKRQREEERRKWKEEEKRKRKDIEKLKKIDRIPERDKLKDEPKIKVHRFLLQAVNQKNLLKKPEKGDEKELDKREKAKKLDKENLSDERASGQSCTLPKRSDSELKDEKPKRPEDESGRDYREREREYERDQERILRERERLKRQEEERRRQKERYEKEKTFKRKEEEMKKEKDTLRDKGKKAESTESIGSSEKTEKKEEVVKRDRIRNKDRPAMQLYQPGARSRNRLCPPDDSTKSGDSAAERKQESGISHRKEGGEE [chain 1 Y160F], the ratio to parent came out at 1.08.

With chain 1 MKEEKEHRPKEKRVTLLTPAGATGSGGGTSGDSSKGEDKQDRNKEKKEALSKVVIRRLPPTLTKEQLQEHLQPMPEHDYFEFFSNDTSLYPHMYARAYINFKNQEDIILFRDRFDGYVFLDNKGQEYPAIVEFAPFQKAAKKKTKKRDTKVGTIDDDPEDRKFLESYATDNEKMTSTPETLLEEIEAKNRELIAKKTTPLLSFLKNKQRMREEKREERRRREIERKRQREEERRKWKEEEKRKRKDIEKLKKIDRIPERDKLKDEPKIKVHRFLLQAVNQKNLLKKPEKGDEKELDKREKAKKLDKENLSDERASGQSCTLPKRSDSELKDEKPKRPEDESGRDYREREREYERDQERILRERERLKRQEEERRRQKERYEKEKTFKRKEEEMKKEKDTLRDKGKKAESTESIGSSEKTEKKEEVVKRDRIRNKDRPAMQLYQPGARSRNRLCPPDDSTKSGDSAAERKQESGISHRKEGGEE [chain 1 Y160D], the ratio to parent turned out to be 0.21.

Variants of B1 are the subject of a further experiment. The description is as above. The source holds these as a separate data set.
Turning to chain 1 MKEEKEHRPKEKRVTLLTPAGATGSGGGTSGDSSKGEDKQDRNKEKKEALSKVVIRRLPPTLTKEQLQEHLQPMPEHDYFEFFSNDTSLYPHMYARAYINFKNQEDIILFRDRFDGYVFLDNKGQEYPAIVEFAPFQKAAKKKTKKRDTKVGTIDDDPEYRKFLESYADDNEKMTSTPETLLEEIEAKNRELIAKKTTPLLSFLKNKQRMREEKREERRRREIERKRQREEERRKWKEEEKRKRKDIEKLKKIDRIPERDKLKDEPKIKVHRFLLQAVNQKNLLKKPEKGDEKELDKREKAKKLDKENLSDERASGQSCTLPKRSDSELKDEKPKRPEDESGRDYREREREYERDQERILRERERLKRQEEERRRQKERYEKEKTFKRKEEEMKKEKDTLRDKGKKAESTESIGSSEKTEKKEEVVKRDRIRNKDRPAMQLYQPGARSRNRLCPPDDSTKSGDSAAERKQESGISHRKEGGEE [chain 1 T169D], the ratio to parent turned out to be 0.2.

Turning to chain 1 MKEEKEHRPKEKRVTLLTPAGATGSGGGTSGDSSKGEDKQDRNKEKKEALSKVVIRRLPPTLTKEQLQEHLQPMPEHDYFEFFSNDTSLYPHMYARAYINFKNQEDIILFRDRFDGYVFLDNKGQEYPAIVEFAPFQKAAKKKTKKRDTKVGTIDDDPEYRKFLESYAADNEKMTSTPETLLEEIEAKNRELIAKKTTPLLSFLKNKQRMREEKREERRRREIERKRQREEERRKWKEEEKRKRKDIEKLKKIDRIPERDKLKDEPKIKVHRFLLQAVNQKNLLKKPEKGDEKELDKREKAKKLDKENLSDERASGQSCTLPKRSDSELKDEKPKRPEDESGRDYREREREYERDQERILRERERLKRQEEERRRQKERYEKEKTFKRKEEEMKKEKDTLRDKGKKAESTESIGSSEKTEKKEEVVKRDRIRNKDRPAMQLYQPGARSRNRLCPPDDSTKSGDSAAERKQESGISHRKEGGEE [chain 1 T169A], the ratio to parent was found to be 1.1.

The next experiment covers variants of B2. Put plainly: co-immunoprecipitation (IP: Flag, blot IRE1α), western blot band quantification; transfected for 24 h.
Turning to chain 1 T198D, the ratio to parent turned out to be 1.21.

For the variant chain 1 T198A, the ratio to parent was 1.06.

Variants of B2 are the subject of a further experiment. The experiment in a line: co-immunoprecipitation (IP: Flag, blot IRE1α), western blot band quantification; HEK293T cells, transfected for 24 h.
chain 1 T169D: the ratio to parent worked out at 0.26.

chain 1 T169A: the ratio to parent turned out to be 1.15.

The variants in a further experiment derive from B2. Put plainly: co-immunoprecipitation (IP: Flag, blot IRE1α), western blot band quantification; U2OS cells, transfected for 24 h.
Regarding chain 1 Y160F, the ratio to parent came out at 1.29.

For the variant chain 1 Y160D, the ratio to parent was determined as 0.17.

In another experiment the parent is B2. Put plainly: co-immunoprecipitation (IP: Flag, blot IRE1α), western blot band quantification; HEK293T cells, transfected for 24 h. The source holds these as a separate data set.
As to chain 1 Y160F, the ratio to parent came to 1.28.

Consider chain 1 Y160D, for which the ratio to parent was 0.21.

The variants in another experiment derive from B2. Put plainly: co-immunoprecipitation (IP: Flag, blot IRE1α), western blot band quantification; transfected for 24 h. The source holds these as a separate data set.
Regarding chain 1 T197A, the ratio to parent is 1.22.

In the case of chain 1 T197D, the ratio to parent is 1.1.
